Results reported in US20070123452A1, “Method of selecting novel immunosuppressant” (Astellas Pharma Inc., priority 2002, published 2007).
Residue numbers refer to the chain shown, from its start. Numbers in names are those of the source.

What was measured:
[1] = target: N-CoR (nuclear receptor corepressor), endogenous protein of the transfected cells, O75376
[2] = target: T1, HDAC3, endogenous protein of the transfected cells, O15379
T1 chain: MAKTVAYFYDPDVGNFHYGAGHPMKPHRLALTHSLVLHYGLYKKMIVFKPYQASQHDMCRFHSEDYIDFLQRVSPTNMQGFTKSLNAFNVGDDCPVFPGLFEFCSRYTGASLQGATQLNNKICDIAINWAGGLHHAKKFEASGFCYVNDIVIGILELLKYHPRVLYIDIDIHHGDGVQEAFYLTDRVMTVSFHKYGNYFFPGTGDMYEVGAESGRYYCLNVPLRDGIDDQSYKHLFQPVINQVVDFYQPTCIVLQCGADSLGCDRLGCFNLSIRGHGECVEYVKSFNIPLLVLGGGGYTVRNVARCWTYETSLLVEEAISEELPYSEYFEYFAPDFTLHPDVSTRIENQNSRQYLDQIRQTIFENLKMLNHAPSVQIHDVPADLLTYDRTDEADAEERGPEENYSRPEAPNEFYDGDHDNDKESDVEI

histone = experiment: HDAC activity with [3H]-labeled acetylated histone as a substrate; format: biochemical, human; conditions: expressed in 293T cells, crudely purified; compared to wild-type HDAC4
Experimental: 7 μg of a plasmid for the expression of wild-type HDAC4 and HDAC4 dominant negative variants (H802K, H803L, H863L) was transfected to 293T cells by the calcium phosphate method; 48 hours later, whole cell lysate (cells were disrupted in 25 mM Tris, pH 7.4, 150 mM NaCl, 1 mM CaCl2, 1% Triton X-100, and cell debris was removed by centrifugation) was crudely purified using an anti-Flag antibody column (SIGMA, anti-Flag M2-agarose) (washed with TBS, then eluted with 0.1M Glysine-HCl, pH 3.5), and used for the measurement of HDAC activity. The reaction substrate used was a [^3H]-labeled acetylated histone prepared by cultivating Jurkat cells (2×10^8 cells) in 40 mL of an RPMI (SIGMA) medium containing 300 MBq [^3H] sodium acetate (NENTM Life Science Products, Inc.) for 2 hours, disrupting the cells in Lysis buffer, pH 6.5 (10 mM Tris-HCl, 50 mM Sodium Hydrogen sulfate, 1% Triton X-100, 10 mM MgCl2-6H2O, 8.6% Sucrose), washing the cells with Wash buffer (10 mM Tris-HCl, 13 mM EDTA), and then adding 0.4N H2SO4.

[3] = test system: GATA-1 transcription (human GATA-1 promoter); experiment: GATA-1 reporter gene assay in HEL cells; format: cell-based; conditions: 10 μg expression plasmid
Experimental: Using 15 μg of pGL3-HSI-IE Pro and 10 μg of a plasmid for the expression of various HDACs or HDAC variants, 8.75×10^6 HEL cells (accession number JCRB0062, JCRB) were transformed by the electroporation method (BIO-RAD, Gene Pulser II, voltage 1750 V, charge 10 μF, 365 μL). After transformation, 2 mL of 10% FBS RPMI 1640 was added, and this mixture was dispensed to a 96-well white plate in a ratio of 50 μL/well. After cultivation under conditions of 37° C., 5% CO2 and saturated humidity for 3 hours, 10% FBS RPMI 1640 medium was added at 50 μL/well. After cultivation under conditions of 37° C., 5% CO2 and saturated humidity for 8 hours, luciferase activity in cells were measured according to the manual of the Bright-Glo Luciferase Assay System, and GATA-1 transcriptional activity was measured using a multi-label counter.
(§1) A mixture of four kinds of HDAC4-targeted siRNA, i.e., siGENE HDAC4 SMARTpool (manufactured by Dharmacon Inc., marketed by B-Bridge international Inc., code number M-003497-00-05), or Non-specific Control Duplex IX (47% GC content) (manufactured by Dharmacon Inc., marketed by B-Bride international Inc., code number D-001206-09-20), and pGL3 IL2 Pro43 were transfected to Jurkat cells by the electroporation method using the same conditions as those mentioned above, and IL-2 transcriptional activity was measured. […]

[4] = test system: IL-2 transcription (human IL-2 promoter); experiment: IL-2 reporter gene assay in Jurkat cells; format: cell-based
Experimental: To 1 μg of the plasmid pGL3 IL2 Pro43, which has a human IL-2 promoter sequence (the −674 to +54 region in the vicinity of the transcription initiation site) upstream of the firefly luciferase gene, and 6 μg of pRL-TK (Promega), the plasmids for the expression of wild-type HDAC4 or each of HDAC4 dominant negative variants (H802K, H803L, H863L) prepared in Example 3 was mixed in various ratios (1, 3 and 10 μg), and 1×10^7 Jurkat cells (ATCC, TIB-152) were transformed by the electroporation method (BIO-RAD, Gene Pulser II, voltage 300 V, charge 975 μF, 400 μL).
After transformation, 2.5 mL of RPMI 1640 containing 10% FBS (MOREGATE) (10% FBS RPMI 1640) was added, and this mixture was dispensed to a 96-well white plate in a ratio of 50 μL/well. After cultivation under conditions of 37° C., 5% CO2 and saturated humidity for 10 hours, a liquid mixture of Phorbol 12-Myristate 13-Acetate (PMA, SIGMA), Ionomycin (SIGMA) and Anti-CD28 antibody (Pharmingen) in 10% FBS RPMI 1640 was added at 50 μL/well (the final concentrations were 50 ng/mL, 1 μg/mL and 75 ng/mL, respectively) to stimulate the Jurkat cells. After cultivation under conditions of 37° C., 5% CO2 and saturated humidity for 12 hours, luciferase activity in the cells was measured according to the manual of the Bright-Glo Luciferase Assay System (Promega) using a multi-label counter (1420 MULTILABEL COUNTER ARVO SX, WALLAC).
1×10^7 Jurkat cells (ATCC, TIB-152) were transformed with 10 μg of a plasmid for the expression of various HDACs or HDAC variants by the electroporation method (BIO-RAD, Gene Pulser II, voltage 300 V, charge 975 μF, 400 μL). […] After cultivation under conditions of 37° C., 5% CO2 and saturated humidity for 12 hours, luciferase activity in cells were measured according to the manual of the Bright-Glo Luciferase Assay System (Promega), and IL-2 transcriptional activity was measured using a multi-label counter (1420 MULTILABEL COUNTER ARVO SX, WALLAC).
as §1, with “measured. Likewise, siGENE HDAC4 SMARTpool or Non-specific Control Duplex IX, and pGL3-HSI-IE Pro were transfected to HEL cells, and GATA-1 transcriptional activity was measured.” for “measured.”

Chain of N-CoR (nuclear receptor corepressor), endogenous protein of the transfected cells, O75376 (O75376 whole entry): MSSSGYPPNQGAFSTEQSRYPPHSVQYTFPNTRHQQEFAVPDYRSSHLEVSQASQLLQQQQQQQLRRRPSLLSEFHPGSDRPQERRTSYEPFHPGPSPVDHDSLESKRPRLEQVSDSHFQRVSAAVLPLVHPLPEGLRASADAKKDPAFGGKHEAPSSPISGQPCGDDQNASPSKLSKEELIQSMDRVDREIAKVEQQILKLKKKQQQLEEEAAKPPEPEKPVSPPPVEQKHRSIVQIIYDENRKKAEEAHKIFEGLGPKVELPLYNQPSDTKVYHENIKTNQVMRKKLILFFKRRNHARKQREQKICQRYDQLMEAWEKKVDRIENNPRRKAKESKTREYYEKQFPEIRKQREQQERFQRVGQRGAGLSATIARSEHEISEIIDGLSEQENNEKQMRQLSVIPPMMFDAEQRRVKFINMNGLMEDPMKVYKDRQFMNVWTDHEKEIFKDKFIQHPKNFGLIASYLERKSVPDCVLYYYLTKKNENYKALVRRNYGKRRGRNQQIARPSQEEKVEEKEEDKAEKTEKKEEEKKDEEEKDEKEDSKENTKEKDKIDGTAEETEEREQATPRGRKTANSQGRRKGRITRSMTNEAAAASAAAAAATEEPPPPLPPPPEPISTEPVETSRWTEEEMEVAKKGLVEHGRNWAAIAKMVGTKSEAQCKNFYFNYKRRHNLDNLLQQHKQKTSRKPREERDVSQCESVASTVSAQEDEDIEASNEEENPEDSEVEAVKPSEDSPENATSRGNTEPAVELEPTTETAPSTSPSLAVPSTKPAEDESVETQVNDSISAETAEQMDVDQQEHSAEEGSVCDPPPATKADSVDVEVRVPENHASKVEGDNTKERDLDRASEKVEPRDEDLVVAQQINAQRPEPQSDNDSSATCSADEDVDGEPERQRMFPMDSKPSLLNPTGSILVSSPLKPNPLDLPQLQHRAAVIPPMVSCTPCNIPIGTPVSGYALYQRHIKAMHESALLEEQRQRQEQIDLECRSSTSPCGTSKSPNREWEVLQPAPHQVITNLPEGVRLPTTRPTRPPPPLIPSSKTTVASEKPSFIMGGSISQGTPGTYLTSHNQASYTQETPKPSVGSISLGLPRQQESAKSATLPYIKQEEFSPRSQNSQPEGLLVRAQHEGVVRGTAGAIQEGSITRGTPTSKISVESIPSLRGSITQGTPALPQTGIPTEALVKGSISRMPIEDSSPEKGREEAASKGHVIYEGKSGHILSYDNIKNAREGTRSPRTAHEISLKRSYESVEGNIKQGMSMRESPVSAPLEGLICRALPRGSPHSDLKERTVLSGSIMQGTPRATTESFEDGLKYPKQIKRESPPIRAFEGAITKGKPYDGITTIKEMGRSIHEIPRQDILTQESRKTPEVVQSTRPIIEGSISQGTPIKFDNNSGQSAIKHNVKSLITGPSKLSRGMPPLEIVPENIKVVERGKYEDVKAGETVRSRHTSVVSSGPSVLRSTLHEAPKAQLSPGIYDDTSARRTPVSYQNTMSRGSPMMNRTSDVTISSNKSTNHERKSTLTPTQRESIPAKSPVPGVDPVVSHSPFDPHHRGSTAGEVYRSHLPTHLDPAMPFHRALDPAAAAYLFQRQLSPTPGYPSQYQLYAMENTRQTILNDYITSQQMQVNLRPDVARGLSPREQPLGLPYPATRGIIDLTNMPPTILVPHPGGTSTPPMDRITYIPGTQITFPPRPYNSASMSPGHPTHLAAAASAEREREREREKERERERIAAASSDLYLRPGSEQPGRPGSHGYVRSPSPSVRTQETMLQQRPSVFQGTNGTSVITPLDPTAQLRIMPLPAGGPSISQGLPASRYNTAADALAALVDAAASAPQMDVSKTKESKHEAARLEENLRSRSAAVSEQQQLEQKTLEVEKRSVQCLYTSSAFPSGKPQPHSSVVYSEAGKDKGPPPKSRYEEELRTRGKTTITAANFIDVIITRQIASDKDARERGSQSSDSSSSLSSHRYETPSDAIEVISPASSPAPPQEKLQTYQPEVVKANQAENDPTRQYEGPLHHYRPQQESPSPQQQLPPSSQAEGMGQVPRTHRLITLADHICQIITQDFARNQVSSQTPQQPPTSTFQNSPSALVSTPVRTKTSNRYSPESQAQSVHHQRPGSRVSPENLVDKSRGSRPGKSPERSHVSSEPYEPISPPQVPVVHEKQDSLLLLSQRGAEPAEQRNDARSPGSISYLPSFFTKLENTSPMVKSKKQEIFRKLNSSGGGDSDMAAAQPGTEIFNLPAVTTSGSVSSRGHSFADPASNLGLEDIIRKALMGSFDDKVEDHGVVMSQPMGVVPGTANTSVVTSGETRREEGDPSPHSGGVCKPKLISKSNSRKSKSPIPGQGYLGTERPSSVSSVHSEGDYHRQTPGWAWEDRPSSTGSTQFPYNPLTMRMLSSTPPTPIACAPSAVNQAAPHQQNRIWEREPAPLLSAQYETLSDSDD

B1: HDAC4 dominant negative variant (H863L) with C-terminal Flag (expressed from pEAK-HDAC4 (H863L)) (protein)
chain: MSSQSHPDGLSGRDQPVELLNPARVNHMPSTVDVATALPLQVAPSAVPMDLRLDHQFSLPVAEPALREQQLQQELLALKQKQQIQRQILIAEFQRQHEQLSRQHEAQLHEHIKQQQEMLAMKHQQELLEHQRKLERHRQEQELEKQHREQKLQQLKNKEKGKESAVASTEVKMKLQEFVLNKKKALAHRNLNHCISSDPRYWYGKTQHSSLDQSSPPQSGVSTSYNHPVLGMYDAKDDFPLRKTASEPNLKLRSRLKQKVAERRSSPLLRRKDGPVVTALKKRPLDVTDSACSSAPGSGPSSPNNSSGSVSAENGIAPAVPSIPAETSLAHRLVAREGSAAPLPLYTSPSLPNITLGLPATGPSAGTAGQQDTERLTLPALQQRLSLFPGTHLTPYLSTSPLERDGGAAHSPLLQHMVLLEQPPAQAPLVTGLGALPLHAQSLVGADRVSPSIHKLRQHRPLGRTQSAPLPQNAQALQHLVIQQQHQQFLEKHKQQFQQQQLQMNKIIPKPSEPARQPESHPEETEEELREHQALLDEPYLDRLPGQKEAHAQAGVQVKQEPIESDEEEAEPPREVEPGQRQPSEQELLFRQQALLLEQQRIHQLRNYQASMEAAGIPVSFGGHRPLSRAQSSPASATFPVSVQEPPTKPRFTTGLVYDTLMLKHQCTCGSSSSHPEHAGRIQSIWSRLQETGLRGKCECIRGRKATLEELQTVHSEAHTLLYGTNPLNRQKLDSKKLLGSLASVFVRLPCGGVGVDSDTIWNEVHSAGAARLAVGCVVELVFKVATGELKNGFAVVRPPGHHAEESTPMGFCYFNSVAVAAKLLQQRLSVSKILIVDWDVHHGNGTQQAFYSDPSVLYMSLLRYDDGNFFPGSGAPDEVGTGPGVGFNVNMAFTGGLDPPMGDAEYLAAFRTVVMPIASEFAPDVVLVSSGFDAVEGHPTPLGGYNLSARCFGYLTKQLMGLAGGRIVLALEGGHDLTAICDASEACVSALLGNELDPLPEKVLQQRPNANAVRSMEKVMEIHSKYWRCLQRTTSTAGRSLIEAQTCENEEAETVTAMASLSVGVKPAEKRPDEEPMEEEPPLDYKDDDDK
HDAC activity with [3H]-labeled acetylated histone as a substrate [1]: had decreased HDAC activity compared to wild-type HDAC4 | HDAC activity with [3H]-labeled acetylated histone as a substrate [2]: had decreased HDAC activity compared to wild-type HDAC4

B2: HDAC4 dominant negative variant (H802K, H803L) with C-terminal Flag (expressed from pEAK-HDAC4 (H802K, H803L)) (protein)
chain: B1 chain with H802K, H803L, L863H
HDAC activity with [3H]-labeled acetylated histone as a substrate [1]: had decreased HDAC activity compared to wild-type HDAC4 | HDAC activity with [3H]-labeled acetylated histone as a substrate [2]: had decreased HDAC activity compared to wild-type HDAC4

B3: HDAC4 dominant negative variants (H802K, H803L): HDAC4 variant with H802K and H803L mutations, amino acid sequence SEQ ID NO:4, expressed from plasmid (protein)
chain: MSSQSHPDGLSGRDQPVELLNPARVNHMPSTVDVATALPLQVAPSAVPMDLRLDHQFSLPVAEPALREQQLQQELLALKQKQQIQRQILIAEFQRQHEQLSRQHEAQLHEHIKQQQEMLAMKHQQELLEHQRKLERHRQEQELEKQHREQKLQQLKNKEKGKESAVASTEVKMKLQEFVLNKKKALAHRNLNHCISSDPRYWYGKTQHSSLDQSSPPQSGVSTSYNHPVLGMYDAKDDFPLRKTASEPNLKLRSRLKQKVAERRSSPLLRRKDGPVVTALKKRPLDVTDSACSSAPGSGPSSPNNSSGSVSAENGIAPAVPSIPAETSLAHRLVAREGSAAPLPLYTSPSLPNITLGLPATGPSAGTAGQQDTERLTLPALQQRLSLFPGTHLTPYLSTSPLERDGGAAHSPLLQHMVLLEQPPAQAPLVTGLGALPLHAQSLVGADRVSPSIHKLRQHRPLGRTQSAPLPQNAQALQHLVIQQQHQQFLEKHKQQFQQQQLQMNKIIPKPSEPARQPESHPEETEEELREHQALLDEPYLDRLPGQKEAHAQAGVQVKQEPIESDEEEAEPPREVEPGQRQPSEQELLFRQQALLLEQQRIHQLRNYQASMEAAGIPVSFGGHRPLSRAQSSPASATFPVSVQEPPTKPRFTTGLVYDTLMLKHQCTCGSSSSHPEHAGRIQSIWSRLQETGLRGKCECIRGRKATLEELQTVHSEAHTLLYGTNPLNRQKLDSKKLLGSLASVFVRLPCGGVGVDSDTIWNEVHSAGAARLAVGCVVELVFKVATGELKNGFAVVRPPGKLAEESTPMGFCYFNSVAVAAKLLQQRLSVSKILIVDWDVHHGNGTQQAFYSDPSVLYMSLHRYDDGNFFPGSGAPDEVGTGPGVGFNVNMAFTGGLDPPMGDAEYLAAFRTVVMPIASEFAPDVVLVSSGFDAVEGHPTPLGGYNLSARCFGYLTKQLMGLAGGRIVLALEGGHDLTAICDASEACVSALLGNELDPLPEKVLQQRPNANAVRSMEKVMEIHSKYWRCLQRTTSTAGRSLIEAQTCENEEAETVTAMASLSVGVKPAEKRPDEEPMEEEPPL
modifications: Dominant negative mutant (H802K, H803L) of human histone deacetylase-4 (HDAC4) gene
HDAC activity with histone as a substrate (histone): decreased HDAC activity compared to wild-type HDAC4 | GATA-1 transcriptional activity (luciferase) [3]: GATA-1 transcription suppression was not observed | IL-2 transcriptional activity (luciferase) ([4]; Jurkat cells stimulated with PMA, Ionomycin, Anti-CD28 antibody, expression plasmid 1, 3 and 10 μg): IL-2 transcription suppression depending on the expression level | IL-2 transcriptional activity (luciferase) ([4]; Jurkat cells, 10 μg expression plasmid, compared with HDAC1 and HDAC3 variants): IL-2 transcription suppression was observed
